Marks after values point to notes of the source that are not given here.
Columns and labels:
[1] = Phase I (FIH) dose-escalation trial, single and multiple doses: pharmacokinetics; parameters: species or system human; conditions: in vivo
Procedure: Study population: 80 healthy subjects with elevated LDL cholesterol.
Orticumab was provided as a sterile liquid and contained no preservatives. Each single-use, 10 mL vial was designed to deliver 250 mg of MLDL1278A. The Drug Product was formulated as 25 mg/mL orticumab in 20 mM sodium acetate, 0.15 M sodium chloride, pH 5.5.
Route of Administration: intravenous injection (Subcutaneous injection was also examined).
The exact explanation for these unusual PK characteristics was unknown at that time. The mean terminal half-life was similar after both single and multiple administrations of orticumab and was generally in the range of 2-3 weeks and thus in agreement with other therapeutic monoclonal antibodies.

[2] = Phase IIa: safety, tolerability, anti-therapeutic antibodies; parameters: species or system human; conditions: in vivo
Procedure: (§1) Incidence and severity of adverse events and clinical laboratory abnormalities as a measure of safety and tolerability of orticumab. Effects of orticumab on inflammatory and metabolic biomarkers. Serum and EDTA plasma samples for soluble biomarker analysis were obtained at baseline and on Day 29 and Day 85. Biomarker assays were performed using the HumanMAP1.6 multiplex panel from Rules Based Medicine (RBM). IL-6 and TNFα immunoassays were performed at Pacific Biomarkers using Quantikine R&D High Sensitivity ELISA. IL-10, MPO and oxLDL immunoassays were performed at Pacific Biomarkers using immunoassay kits from MSA, Prognostix, and Mercodia, respectively. Presence of anti-therapeutic antibodies to orticumab.

SLE ApoE−/− mice [3] = test: Passive immunization: plaque area and composition in aortic root, flat preps of aorta; type: in vivo, mouse
Procedure: (§2) SLE ApoE^−/− mice were treated with three weekly injections of either orticumab or an irrelevant antibody as control. Six-week old mice were fed with HFD, and were injected at weeks 18, 19 and 20 with orticumab (one dose of 1 mg per week, IP injections), and sacrificed for analysis in week 22. Plaque area and composition were determined in the aortic root.

oxidized LDL = oxidized LDL (Homo sapiens, UniProt P04114); conditions: cited from earlier work
[4] = test system: patients with atherosclerosis and evidence of carotid or aortic plaque inflammation; test: Phase IIa: inflammatory and metabolic biomarkers; type: in vivo, human
Procedure: as §1

B6.lpr.ApoE−/− mice [5] = test: Atherosclerosis: en face Oil Red O of aortic arch, subvalvular plaque area, Oil Red O and CD68; type: in vivo, mouse; conditions: for reduction of subvalvular plaque area / development: three injections of the antibody
SLE ApoE−/− mice [6] = test: Passive immunization: spleen cells and plasma biomarkers; type: in vivo, mouse
Procedure: as §2

[7] = in vivo
[8] = test system: PBMC isolated from SLE patients; test: Uptake of DiI-oxLDL and cytokine release in SLE PBMC with MDA.P45-IgG; type: cell-based, human; conditions: 10 μg/ml antibody with 10 μg/ml labelled oxLDL, 24 hours
Procedure: Flow cytometry analysis of PBMCs stimulated with DIloxLDL and MDA.P45-IgG antibody: PBMCs were slowly thawed in 37° C. PBS with 2% autologous serum, counted and seeded into appropriate medium and conditions. Medium for each stimuli condition was prepared from complete RPMI (cRPMI, 10 U/ml Penicillin/streptomycin, 1% L-glutamine, 1% sodium pyruvate, 1% Hepes and 0.1% mercaptoethanol) with 2% autologous serum (Sigma Aldrich) including the respective stimuli conditions and pre-incubated in 37° C. for 1 h before stimulating the cells with it. Condition 1; unstimulated, condition 2; 10 μg/ml Dil-OxLDL (Thermo Scientific), condition 3; 10 μg/ml Dil-OxLDL with MDA.P45-IgG. (Dil-OxLDL refers to oxidized LDL complexed with Dil dye).
At time of experiment, cells were slowly thawed in 37° C. PBS containing 2% autologous serum. Cells were counted and all cells obtained were divided into three wells for respective condition mentioned above for 24 h at 37° C. in 5% CO2. After 24 h stimulation, medium was harvested and kept in −80° C. until cytokine analysis. Cells were washed twice in FACS buffer (PBS 1% bovine serum albumin […] EDTA), then stained with Zombie Aqua viability dye for 20 minutes in room temperature (RT). This was followed by another wash then incubation with anti-HLA-DR APC-Cy7 anti-CD3-PECy7 and anti-CD14-AF700 for 30 minutes in RT prior acquisition in Gallios flow cytometer (Beckman Coulter, Brea, Calif., USA). Cell populations were manually gated in FlowJo LTT (Tree Star, San Diego, Calif., USA).
Multiplex analysis of PBMC cell culture medium: Cell culture medium from human SLE and control PBMCs were thawed on ice before analyzed using Multiplex Inflammation assay (Merck, Millipore, Burlington, Mass., USA) according to following kit instructions.
Having observed the protective effect of MDA-p45 IgG on atherosclerosis development in B6.lpr.ApoE−/− mice, we next investigated how this antibody affected the interaction of SLE PBMC with oxLDL. We incubated the cells with 10 μg/ml of fluorescently labelled oxLDL for 24 hours with and without addition of 10 μg/ml MDA-p45 IgG.

B6.lpr.ApoE−/− mice [9] = test: Carotid artery mRNA expression; type: in vivo, mouse; conditions: 1 mg i.p. weekly x3; vs control IgG
Procedure: Statistics: Clinical comparisons from human individuals were evaluated and statistically tested using SPSS software. For same-individual analyses, paired nonparametric Wilxocon rank test was used. For normally distributed data, Students t-test was used. For not normally distributed data, Mann-Whitney rank test was used. Numerical data is expressed as mean±standard deviation if normally distributed or median±intra-quartile range if not normally distributed. Carotid gene expressions were log transformed and expressed as arbitrary units (A.U) and relative fold change respectively. All data was plotted in GraphPad Prism and significance levels used are *=p<0.05 **=p<0.01, ***=p<0.001.

[10] = male mice, 1 mg i.p. weekly for three weeks, vs control IgG

oxidized LDL, sequence (P04114 28-4563): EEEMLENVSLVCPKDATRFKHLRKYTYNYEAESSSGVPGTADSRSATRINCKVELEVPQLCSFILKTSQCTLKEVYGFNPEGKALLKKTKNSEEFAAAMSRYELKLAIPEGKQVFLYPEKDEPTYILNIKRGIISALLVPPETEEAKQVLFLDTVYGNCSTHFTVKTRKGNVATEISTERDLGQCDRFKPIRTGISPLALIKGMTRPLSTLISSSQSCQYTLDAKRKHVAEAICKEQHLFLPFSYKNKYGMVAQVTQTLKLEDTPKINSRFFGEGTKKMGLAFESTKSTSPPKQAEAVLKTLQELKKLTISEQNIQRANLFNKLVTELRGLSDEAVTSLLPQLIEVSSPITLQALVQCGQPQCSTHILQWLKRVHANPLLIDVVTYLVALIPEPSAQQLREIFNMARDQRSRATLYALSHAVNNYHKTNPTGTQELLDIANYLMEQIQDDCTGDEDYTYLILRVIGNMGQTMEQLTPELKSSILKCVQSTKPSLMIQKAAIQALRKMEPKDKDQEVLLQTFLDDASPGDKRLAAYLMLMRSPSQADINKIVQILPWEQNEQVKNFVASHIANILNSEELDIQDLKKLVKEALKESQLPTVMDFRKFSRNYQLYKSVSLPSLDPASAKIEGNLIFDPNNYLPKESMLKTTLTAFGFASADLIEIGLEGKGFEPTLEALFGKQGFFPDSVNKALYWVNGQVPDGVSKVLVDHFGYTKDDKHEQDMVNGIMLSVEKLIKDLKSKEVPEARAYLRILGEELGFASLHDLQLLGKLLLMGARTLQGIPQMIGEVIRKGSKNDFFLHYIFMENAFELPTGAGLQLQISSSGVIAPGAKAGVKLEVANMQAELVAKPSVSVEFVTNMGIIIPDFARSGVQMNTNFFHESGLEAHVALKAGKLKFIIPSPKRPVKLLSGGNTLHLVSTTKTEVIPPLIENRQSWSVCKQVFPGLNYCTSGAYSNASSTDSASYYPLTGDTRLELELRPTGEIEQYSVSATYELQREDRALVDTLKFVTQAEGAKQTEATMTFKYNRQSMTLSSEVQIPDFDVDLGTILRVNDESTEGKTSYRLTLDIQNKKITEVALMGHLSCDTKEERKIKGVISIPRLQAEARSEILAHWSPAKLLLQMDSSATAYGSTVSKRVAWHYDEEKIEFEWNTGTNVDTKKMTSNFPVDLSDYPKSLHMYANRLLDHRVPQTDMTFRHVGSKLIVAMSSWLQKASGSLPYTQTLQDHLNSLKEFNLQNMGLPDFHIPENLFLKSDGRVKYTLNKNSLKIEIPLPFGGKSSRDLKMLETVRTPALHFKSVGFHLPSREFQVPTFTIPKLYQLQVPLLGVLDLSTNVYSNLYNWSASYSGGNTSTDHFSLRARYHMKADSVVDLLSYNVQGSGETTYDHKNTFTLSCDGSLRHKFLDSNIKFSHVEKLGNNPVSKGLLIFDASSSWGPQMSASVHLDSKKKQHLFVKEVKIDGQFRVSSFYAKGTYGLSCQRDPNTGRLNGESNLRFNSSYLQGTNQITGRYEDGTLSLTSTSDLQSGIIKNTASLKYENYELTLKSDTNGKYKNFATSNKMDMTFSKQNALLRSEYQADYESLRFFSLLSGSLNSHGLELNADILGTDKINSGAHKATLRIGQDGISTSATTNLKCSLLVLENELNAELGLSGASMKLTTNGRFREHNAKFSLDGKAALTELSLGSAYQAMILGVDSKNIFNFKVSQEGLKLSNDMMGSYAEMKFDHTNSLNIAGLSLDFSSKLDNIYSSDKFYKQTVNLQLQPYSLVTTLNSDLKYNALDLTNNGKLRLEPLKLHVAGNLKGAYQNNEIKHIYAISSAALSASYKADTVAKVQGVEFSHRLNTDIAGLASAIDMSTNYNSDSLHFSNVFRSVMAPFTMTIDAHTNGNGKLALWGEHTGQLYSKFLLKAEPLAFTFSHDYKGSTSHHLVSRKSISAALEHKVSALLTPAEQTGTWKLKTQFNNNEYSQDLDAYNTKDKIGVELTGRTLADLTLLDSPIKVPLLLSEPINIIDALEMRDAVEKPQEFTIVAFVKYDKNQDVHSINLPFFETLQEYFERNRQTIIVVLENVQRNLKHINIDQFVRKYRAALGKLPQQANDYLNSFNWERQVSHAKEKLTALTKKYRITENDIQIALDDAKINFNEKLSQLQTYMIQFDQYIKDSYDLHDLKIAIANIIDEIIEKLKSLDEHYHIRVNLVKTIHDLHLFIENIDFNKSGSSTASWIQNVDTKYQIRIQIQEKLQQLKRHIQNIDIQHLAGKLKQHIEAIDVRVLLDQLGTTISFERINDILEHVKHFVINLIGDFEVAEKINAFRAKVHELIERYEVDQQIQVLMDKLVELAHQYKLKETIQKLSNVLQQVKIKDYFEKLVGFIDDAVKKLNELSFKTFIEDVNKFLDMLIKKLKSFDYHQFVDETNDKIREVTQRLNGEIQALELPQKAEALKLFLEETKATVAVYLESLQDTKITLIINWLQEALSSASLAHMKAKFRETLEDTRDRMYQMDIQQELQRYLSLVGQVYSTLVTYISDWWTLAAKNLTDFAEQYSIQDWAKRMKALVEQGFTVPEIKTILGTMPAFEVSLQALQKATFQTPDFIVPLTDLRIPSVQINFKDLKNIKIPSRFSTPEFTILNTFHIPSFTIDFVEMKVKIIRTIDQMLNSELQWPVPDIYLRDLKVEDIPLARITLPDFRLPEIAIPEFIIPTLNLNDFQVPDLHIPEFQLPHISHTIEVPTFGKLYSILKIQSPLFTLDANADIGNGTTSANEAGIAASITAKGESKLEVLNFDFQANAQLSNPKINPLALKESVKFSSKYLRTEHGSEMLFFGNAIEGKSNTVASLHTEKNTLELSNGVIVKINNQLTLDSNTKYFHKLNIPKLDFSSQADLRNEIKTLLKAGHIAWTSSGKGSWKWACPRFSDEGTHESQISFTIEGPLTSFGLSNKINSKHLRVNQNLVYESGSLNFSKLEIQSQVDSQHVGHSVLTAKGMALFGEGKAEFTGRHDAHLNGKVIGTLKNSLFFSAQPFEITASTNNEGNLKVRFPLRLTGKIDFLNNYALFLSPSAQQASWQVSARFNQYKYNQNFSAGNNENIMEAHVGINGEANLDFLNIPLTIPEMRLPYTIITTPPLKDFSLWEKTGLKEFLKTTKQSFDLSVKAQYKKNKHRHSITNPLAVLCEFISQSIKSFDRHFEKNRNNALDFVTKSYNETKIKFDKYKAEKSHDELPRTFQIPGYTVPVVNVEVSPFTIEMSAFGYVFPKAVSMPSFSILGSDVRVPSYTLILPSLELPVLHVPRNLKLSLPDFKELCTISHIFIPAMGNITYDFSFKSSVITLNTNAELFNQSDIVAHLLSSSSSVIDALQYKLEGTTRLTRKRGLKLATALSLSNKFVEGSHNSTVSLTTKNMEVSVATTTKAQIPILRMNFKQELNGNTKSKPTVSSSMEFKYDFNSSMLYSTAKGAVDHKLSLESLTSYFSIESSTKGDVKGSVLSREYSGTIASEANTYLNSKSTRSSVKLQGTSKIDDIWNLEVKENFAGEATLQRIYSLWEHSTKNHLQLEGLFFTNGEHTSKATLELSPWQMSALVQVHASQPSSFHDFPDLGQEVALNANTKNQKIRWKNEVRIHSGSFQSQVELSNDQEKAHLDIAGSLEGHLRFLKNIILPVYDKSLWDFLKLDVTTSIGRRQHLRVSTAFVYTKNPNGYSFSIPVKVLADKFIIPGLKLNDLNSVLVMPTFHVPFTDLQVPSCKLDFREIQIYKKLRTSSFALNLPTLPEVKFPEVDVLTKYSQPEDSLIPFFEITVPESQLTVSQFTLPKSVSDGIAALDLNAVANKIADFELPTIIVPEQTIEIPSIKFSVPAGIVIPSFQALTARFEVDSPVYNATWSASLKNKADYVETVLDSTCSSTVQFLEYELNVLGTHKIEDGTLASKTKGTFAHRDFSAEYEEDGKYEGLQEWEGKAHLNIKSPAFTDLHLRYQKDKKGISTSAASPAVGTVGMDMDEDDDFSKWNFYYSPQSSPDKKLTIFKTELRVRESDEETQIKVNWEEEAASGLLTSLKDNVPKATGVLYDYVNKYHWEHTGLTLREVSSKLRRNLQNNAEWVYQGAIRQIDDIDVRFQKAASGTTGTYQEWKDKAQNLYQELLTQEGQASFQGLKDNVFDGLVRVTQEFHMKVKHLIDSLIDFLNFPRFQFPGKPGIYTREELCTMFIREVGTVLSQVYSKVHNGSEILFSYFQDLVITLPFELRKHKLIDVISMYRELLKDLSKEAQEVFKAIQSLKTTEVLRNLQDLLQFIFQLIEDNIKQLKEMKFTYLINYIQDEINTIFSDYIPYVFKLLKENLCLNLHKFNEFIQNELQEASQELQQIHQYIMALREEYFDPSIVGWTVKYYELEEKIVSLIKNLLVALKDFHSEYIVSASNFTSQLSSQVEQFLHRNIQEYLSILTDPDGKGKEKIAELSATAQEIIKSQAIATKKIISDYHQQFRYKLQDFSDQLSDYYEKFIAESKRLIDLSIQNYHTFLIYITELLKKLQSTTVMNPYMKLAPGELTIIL

orticumab: recombinant human IgG1 against MDA-modified peptide 45 of ApoB100; heavy chain SEQ ID NO: 316, light chain SEQ ID NO: 317
mean terminal half-life ([1]; human): 2-3 weeks
Cmax ([1]; human, iv, 1.25 mg/kg): 20600 ng/mL
Cmax ([1]; human, iv, 5 mg/kg): 105000 ng/mL
Cmax ([1]; human, sc, 1.25 mg/kg): 2990 ng/mL
Cmax, max exposure IV vs SC ([1]; 1.25 mg/kg): 6.9 times
½-life ([1]; 1.25 mg/kg): 20 days
C ≥ 1 μg/mL ([1]; iv, 1.25 mg/kg): Day 28
C ≥ 4 μg/mL ([1]; iv, 1.25 mg/kg): Day 3 (<Day 7)
C ≥ 12 μg/mL ([1]; iv, 1.25 mg/kg): 11 h
C ≥ 1 μg/mL ([1]; iv, 5 mg/kg): Day 56
C ≥ 4 μg/mL ([1]; iv, 5 mg/kg): Day 14
C ≥ 12 μg/mL ([1]; iv, 5 mg/kg): Day 3
C ≥ 1 μg/mL ([1]; iv, 15 mg/kg): Day 70*
C ≥ 4 μg/mL ([1]; iv, 15 mg/kg): Day 42
C ≥ 12 μg/mL ([1]; iv, 15 mg/kg): Day 28
C ≥ 1 μg/mL ([1]; sc, 1.25 mg/kg): Day 28
C ≥ 4 μg/mL ([1]; sc, 1.25 mg/kg): Not achieved
C ≥ 12 μg/mL ([1]; sc, 1.25 mg/kg): Not achieved
Cmax of SC dose versus threshold ([1]; sc, 1.25 mg/kg): does not reach threshold of 4-12 μg/mL
dose-limiting toxicities, deaths, pregnancies [2]: No dose-limiting toxicities, deaths, or pregnancies
immunogenicity [2]: no evidence of immunogenicity
serious adverse events related to procedures or administration [2]: No serious adverse events
tolerability [2]: well tolerated
plaque area in aortic root (SLE ApoE−/− mice [3]; 1 mg IP weekly at weeks 18, 19, 20, vs control antibody): significantly smaller plaques
apoptosis in plaque areas (number of TUNEL cells) (SLE ApoE−/− mice [3]; 1 mg IP weekly x3): increased apoptosis
lipid staining, flat preps of the aorta (SLE ApoE−/− mice [3]; 1 mg IP weekly x3): reduction, although not significant
CD68+ area (SLE ApoE−/− mice [3]; 1 mg IP weekly x3, vs control antibody): reduced
binding specificity, oxidized vs native LDL (oxidized LDL): binds only to oxidized LDL and not to native LDL
interleukin 6 level ([4]; 4 weeks, multiple-dose group): nominal increase
tumor necrosis factor alpha level ([4]; 4 weeks, multiple-dose group): nominal increase
lipid parameters or high-sensitivity C-reactive protein level ([4]; either group): No significant decreases
lipid accumulation in subvalvular plaques (B6.lpr.ApoE−/− mice [5]; [10]): trend towards decreased
reduction of CD68-macrophage subvalvular plaque staining (B6.lpr.ApoE−/− mice [5]; [10]): 30.5%
reduction of atherosclerosis in the aortic arch (B6.lpr.ApoE−/− mice [5]; [10]): 42.8%
reduction of subvalvular plaque area / development (B6.lpr.ApoE−/− mice [5]): 50%
reduction of subvalvular plaque area / development (B6.lpr.ApoE−/− mice [5]; listed as MDA-P45 specific antibody): 50.3%
spleen monocytes or B cells (SLE ApoE−/− mice [6]; end of experiment): no differences
plasma levels of oxidized LDL and plasma cytokines (SLE ApoE−/− mice [6]; mouse, in vivo): no differences
subjects on active treatment reporting adverse events [7]: 44 of the 64
treatment-emergent adverse events reported on active treatment [7]: 115 (76.2%)
cellular uptake of oxLDL [8]: increased cellular uptake
expression of CD14 and uptake of oxLDL in CD14+ APC [8]: increased
release of anti-inflammatory cytokine IL-1RA [8]: modest increase
mRNA expression of IL-10 or MCP-1 in carotid arteries (B6.lpr.ApoE−/− mice [9]): no effect
